Assay results published in the Human Domainome abundance scans (Beltran et al. 2025).
± gives the uncertainty stated by the source.

B1: Chromodomain-helicase-DNA-binding protein 7, residues 2564 to 2605; numbered along this chain, Q9P2D1 (parent)
chain: DPDTRIPVINLEDGTRLVGEDAPKNKDLVEWLKLHPTYTVDM

Variants of: B1
Assay: abundance fitness (aPCA) (normalised: wild type 0, dead -1); higher = more abundant; growth selection in yeast, the domain comes from the species named
Conditions: Homo sapiens

**Q.** Which abundance fitness does the source give for DPDTRIPVINLEDGTRLVGEDAWKNKDLVEWLKLHPTYTVDM [P23W] here?
**A.** The abundance fitness was -1.09 ± 0.089.

**Q.** Which abundance fitness does the source give for DPDTRIPVINLEDGTRLVGEDAIKNKDLVEWLKLHPTYTVDM [P23I] here?
**A.** The abundance fitness was -0.496 ± 0.071.

**Q.** Which abundance fitness does the source give for DPDTRIPVINLEDGTRLVGEDAYKNKDLVEWLKLHPTYTVDM [P23Y] here?
**A.** Its abundance fitness is -1.1 ± 0.16.

**Q.** For DPDTRIPVINLEDGTRLVGEDAVKNKDLVEWLKLHPTYTVDM [P23V], which abundance fitness is on record?
**A.** The abundance fitness was -0.658 ± 0.057.

**Q.** Which abundance fitness does the source give for DPDTRIPVINLEDGTRLVGEDALKNKDLVEWLKLHPTYTVDM [P23L] here?
**A.** The abundance fitness was -0.725 ± 0.075.

**Q.** For DPDTRIPVINLEDGTRLVGEDACKNKDLVEWLKLHPTYTVDM [P23C], which abundance fitness is on record?
**A.** Its abundance fitness is -0.497 ± 0.15.

**Q.** For DPDTRIPVINLEDGTRLVGEDAHKNKDLVEWLKLHPTYTVDM [P23H], which abundance fitness is on record?
**A.** Its abundance fitness is -0.679 ± 0.081.

**Q.** With DPDTRIPVINLEDGTRLVGEDAFKNKDLVEWLKLHPTYTVDM [P23F] as the variant, how does the abundance fitness read?
**A.** Its abundance fitness is -0.784 ± 0.12.

**Q.** For DPDTRIPVINLEDGTRLVGEDAKKNKDLVEWLKLHPTYTVDM [P23K], which abundance fitness is on record?
**A.** The abundance fitness was -0.515 ± 0.14.

**Q.** With DPDTRIPVINLEDGTRLVGEKAPKNKDLVEWLKLHPTYTVDM [D21K] as the variant, how does the abundance fitness read?
**A.** Its abundance fitness is -0.134 ± 0.068.

**Q.** Which abundance fitness does the source give for DPDTRIPVINLEDGTRLVGESAPKNKDLVEWLKLHPTYTVDM [D21S] here?
**A.** Its abundance fitness is -0.093 ± 0.076.

**Q.** Which abundance fitness does the source give for DPDTRIPVINLEDGTRLVGERAPKNKDLVEWLKLHPTYTVDM [D21R] here?
**A.** The abundance fitness was -0.316 ± 0.065.

**Q.** Which abundance fitness does the source give for DPDTRIPVINLEDGTRLVGEIAPKNKDLVEWLKLHPTYTVDM [D21I] here?
**A.** Its abundance fitness is -0.512 ± 0.12.

**Q.** Which abundance fitness does the source give for DPDTRIPVINLEDGTRLVGEQAPKNKDLVEWLKLHPTYTVDM [D21Q] here?
**A.** Its abundance fitness is -0.018 ± 0.17.

**Q.** Which abundance fitness does the source give for DPDTRIPVINLEDGTRLVGEEAPKNKDLVEWLKLHPTYTVDM [D21E] here?
**A.** The abundance fitness was -0.207 ± 0.11.

**Q.** With DPDTRIPVINLEDGTRLVGECAPKNKDLVEWLKLHPTYTVDM [D21C] as the variant, how does the abundance fitness read?
**A.** The abundance fitness was -0.07 ± 0.091.

**Q.** For DPDTRIPVINLEDGTRLVGEMAPKNKDLVEWLKLHPTYTVDM [D21M], which abundance fitness is on record?
**A.** Its abundance fitness is -0.161 ± 0.078.

**Q.** Which abundance fitness does the source give for DPDTRIPVINLEDGTRLVGETAPKNKDLVEWLKLHPTYTVDM [D21T] here?
**A.** Its abundance fitness is -0.246 ± 0.12.

**Q.** With DPDTRIPVINLEDGTRLVGEWAPKNKDLVEWLKLHPTYTVDM [D21W] as the variant, how does the abundance fitness read?
**A.** Its abundance fitness is -0.442 ± 0.17.

**Q.** Which abundance fitness does the source give for DPDTRIPVINLEDGTRLVGEPAPKNKDLVEWLKLHPTYTVDM [D21P] here?
**A.** Its abundance fitness is -0.378 ± 0.15.

**Q.** For DPDTRIPVINLEDGTRLVGEYAPKNKDLVEWLKLHPTYTVDM [D21Y], which abundance fitness is on record?
**A.** The abundance fitness was -0.165 ± 0.06.

**Q.** For DPDTRIPVINLEDGTRLVGENAPKNKDLVEWLKLHPTYTVDM [D21N], which abundance fitness is on record?
**A.** The abundance fitness was -0.054 ± 0.067.

**Q.** Which abundance fitness does the source give for DPDTRIPVINLEDGTRLVGELAPKNKDLVEWLKLHPTYTVDM [D21L] here?
**A.** Its abundance fitness is -0.161 ± 0.075.

**Q.** For DPDTRIPVINLEDGTRLVGEAAPKNKDLVEWLKLHPTYTVDM [D21A], which abundance fitness is on record?
**A.** Its abundance fitness is -0.279 ± 0.093.

**Q.** For DPDTRIPVINLEDGTRLVGEFAPKNKDLVEWLKLHPTYTVDM [D21F], which abundance fitness is on record?
**A.** The abundance fitness was -0.17 ± 0.073.

**Q.** Which abundance fitness does the source give for DPDTRIPVINLEDGTRLVGEVAPKNKDLVEWLKLHPTYTVDM [D21V] here?
**A.** The abundance fitness was -0.508 ± 0.063.

**Q.** For DPDTRIPVINLEDGTRLVGEHAPKNKDLVEWLKLHPTYTVDM [D21H], which abundance fitness is on record?
**A.** The abundance fitness was -0.109 ± 0.079.

**Q.** With DPDTRIPVINLEDGTRLVGEDFPKNKDLVEWLKLHPTYTVDM [A22F] as the variant, how does the abundance fitness read?
**A.** The abundance fitness was -0.466 ± 0.34.

**Q.** For DPDTRIPVINLEDGTRLVGEDLPKNKDLVEWLKLHPTYTVDM [A22L], which abundance fitness is on record?
**A.** Its abundance fitness is -0.539 ± 0.071.

**Q.** With DPDTRIPVINLEDGTRLVGEDNPKNKDLVEWLKLHPTYTVDM [A22N] as the variant, how does the abundance fitness read?
**A.** The abundance fitness was -0.519 ± 0.062.

**Q.** With DPDTRIPVINLEDGTRLVGEDIPKNKDLVEWLKLHPTYTVDM [A22I] as the variant, how does the abundance fitness read?
**A.** Its abundance fitness is -0.483 ± 0.076.

**Q.** Which abundance fitness does the source give for DPDTRIPVINLEDGTRLVGEDMPKNKDLVEWLKLHPTYTVDM [A22M] here?
**A.** Its abundance fitness is -0.673 ± 0.14.

**Q.** Which abundance fitness does the source give for DPDTRIPVINLEDGTRLVGEDWPKNKDLVEWLKLHPTYTVDM [A22W] here?
**A.** The abundance fitness was -1.04 ± 0.1.

**Q.** For DPDTRIPVINLEDGTRLVGEDYPKNKDLVEWLKLHPTYTVDM [A22Y], which abundance fitness is on record?
**A.** Its abundance fitness is -1.03 ± 0.09.

**Q.** For DPDTRIPVINLEDGTRLVGEDPPKNKDLVEWLKLHPTYTVDM [A22P], which abundance fitness is on record?
**A.** The abundance fitness was -0.622 ± 0.11.

**Q.** With DPDTRIPVINLEDGTRLVGEDRPKNKDLVEWLKLHPTYTVDM [A22R] as the variant, how does the abundance fitness read?
**A.** The abundance fitness was -0.477 ± 0.052.

**Q.** For DPDTRIPVINLEDGTRLVGEDCPKNKDLVEWLKLHPTYTVDM [A22C], which abundance fitness is on record?
**A.** The abundance fitness was -0.168 ± 0.057.

**Q.** With DPDTRIPVINLEDGTRLVGEDTPKNKDLVEWLKLHPTYTVDM [A22T] as the variant, how does the abundance fitness read?
**A.** The abundance fitness was -0.527 ± 0.082.

**Q.** With DPDTRIPVINLEDGTRLVGEDSPKNKDLVEWLKLHPTYTVDM [A22S] as the variant, how does the abundance fitness read?
**A.** Its abundance fitness is -0.358 ± 0.051.

**Q.** For DPDTRIPVINLEDGTRLVGEDEPKNKDLVEWLKLHPTYTVDM [A22E], which abundance fitness is on record?
**A.** The abundance fitness was -0.839 ± 0.14.

**Q.** With DPDTRIPVINLEDGTRLVGEDDPKNKDLVEWLKLHPTYTVDM [A22D] as the variant, how does the abundance fitness read?
**A.** The abundance fitness was -0.565 ± 0.081.

**Q.** Which abundance fitness does the source give for DPDTRIPVINLEDGTRLVGEDHPKNKDLVEWLKLHPTYTVDM [A22H] here?
**A.** Its abundance fitness is -0.306 ± 0.26.

**Q.** For DPDTRIPVINLEDGTRLVGEDVPKNKDLVEWLKLHPTYTVDM [A22V], which abundance fitness is on record?
**A.** Its abundance fitness is -0.79 ± 0.077.

**Q.** With DPDTRIPVINLEDGTRLVGIDAPKNKDLVEWLKLHPTYTVDM [E20I] as the variant, how does the abundance fitness read?
**A.** The abundance fitness was -0.208 ± 0.063.

**Q.** For DPDTRIPVINLEDGTRLVGRDAPKNKDLVEWLKLHPTYTVDM [E20R], which abundance fitness is on record?
**A.** Its abundance fitness is -0.189 ± 0.055.

**Q.** With DPDTRIPVINLEDGTRLVGFDAPKNKDLVEWLKLHPTYTVDM [E20F] as the variant, how does the abundance fitness read?
**A.** The abundance fitness was -0.365 ± 0.085.

**Q.** With DPDTRIPVINLEDGTRLVGVDAPKNKDLVEWLKLHPTYTVDM [E20V] as the variant, how does the abundance fitness read?
**A.** Its abundance fitness is -0.195 ± 0.049.

**Q.** With DPDTRIPVINLEDGTRLVGWDAPKNKDLVEWLKLHPTYTVDM [E20W] as the variant, how does the abundance fitness read?
**A.** Its abundance fitness is -0.447 ± 0.075.

**Q.** For DPDTRIPVINLEDGTRLVGGDAPKNKDLVEWLKLHPTYTVDM [E20G], which abundance fitness is on record?
**A.** The abundance fitness was -0.196 ± 0.049.

**Q.** For DPDTRIPVINLEDGTRLVGDDAPKNKDLVEWLKLHPTYTVDM [E20D], which abundance fitness is on record?
**A.** Its abundance fitness is -0.059 ± 0.059.

**Q.** Which abundance fitness does the source give for DPDTRIPVINLEDGTRLVGHDAPKNKDLVEWLKLHPTYTVDM [E20H] here?
**A.** Its abundance fitness is -0.498 ± 0.15.

**Q.** With DPDTRIPVINLEDGTRLVGKDAPKNKDLVEWLKLHPTYTVDM [E20K] as the variant, how does the abundance fitness read?
**A.** Its abundance fitness is -0.125 ± 0.1.

**Q.** For DPDTRIPVINLEDGTRLVGYDAPKNKDLVEWLKLHPTYTVDM [E20Y], which abundance fitness is on record?
**A.** The abundance fitness was -0.395 ± 0.064.

**Q.** With DPDTRIPVINLEDGTRLVGCDAPKNKDLVEWLKLHPTYTVDM [E20C] as the variant, how does the abundance fitness read?
**A.** Its abundance fitness is -0.264 ± 0.056.

**Q.** With DPDTRIPVINLEDGTRLVGMDAPKNKDLVEWLKLHPTYTVDM [E20M] as the variant, how does the abundance fitness read?
**A.** The abundance fitness was -0.235 ± 0.15.

**Q.** For DPDTRIPVINLEDGTRLVGSDAPKNKDLVEWLKLHPTYTVDM [E20S], which abundance fitness is on record?
**A.** Its abundance fitness is -0.159 ± 0.063.

**Q.** Which abundance fitness does the source give for DPDTRIPVINLEDGTRLVGNDAPKNKDLVEWLKLHPTYTVDM [E20N] here?
**A.** Its abundance fitness is -0.167 ± 0.064.

**Q.** Which abundance fitness does the source give for DPDTRIPVINLEDGTRLVGLDAPKNKDLVEWLKLHPTYTVDM [E20L] here?
**A.** The abundance fitness was -0.369 ± 0.088.

**Q.** With DPDTRIPVINLEDGTRLVGADAPKNKDLVEWLKLHPTYTVDM [E20A] as the variant, how does the abundance fitness read?
**A.** Its abundance fitness is -0.163 ± 0.11.

**Q.** For DPDTRIPVINLEDGTRLVGTDAPKNKDLVEWLKLHPTYTVDM [E20T], which abundance fitness is on record?
**A.** Its abundance fitness is -0.027 ± 0.082.
